Assay results reported in article PMC3098264, “Crystal Structure of the PAC1R Extracellular Domain Unifies a Consensus Fold for Hormone Recognition by Class B G-Protein Coupled Receptors” (PLoS ONE, 2011).

B1: un-labeled PACAP (15–31) [not stated] / MBP-PAC1R (25–140)-His6 [human] (parent complex)
chain 1: KQMAVKKYLAAVLGKRY
chain 2: CIFKKEQAMCLEKIQRANELMGFNDSSPGCPGMWDNITCWKPAHVGEMVLVSCPELFRIFNPDQDMGVVSRNCTEDGWSEPFPHYFDACGFDEYESETGDQDYYYLSVKALYTVGY

Variants of: B1
Assay: competitive AlphaScreen; Competing peptide 150uM; residual signal after competition, higher counts = weaker competition by the mutant peptide; read off a plot

Which response does the source give for chain 1 K7A here?
Its response is about 2900 Photon Counts.

With chain 1 Y8A as the variant, how does the response read?
Its response is about 1500 Photon Counts.

Which response does the source give for chain 1 R16A here?
Its response is about 2700 Photon Counts.

Which response does the source give for chain 1 K1A here?
The response was about 1800 Photon Counts.

With chain 1 K6A as the variant, how does the response read?
The response was about 34000 Photon Counts.

How did the response turn out when chain 1 L13A was run?
Its response is about 26000 Photon Counts.

How did the response turn out when chain 1 L9A was run?
Its response is about 1100 Photon Counts.

chain 1 V12A was tested. Which response did it give?
The response was about 6300 Photon Counts.

Which response does the source give for chain 1 V5A here?
Its response is about 17000 Photon Counts.

How did the response turn out when chain 1 Q2A was run?
Its response is about 1900 Photon Counts.

With chain 1 M3A as the variant, how does the response read?
Its response is about 5100 Photon Counts.

chain 1 Y17A was tested. Which response did it give?
The response was about 2700 Photon Counts.

Which response does the source give for chain 1 K15A here?
The response was about 3800 Photon Counts.
